Assay results reported in PMC13397619.

B1: NLV2 TCR alpha chain (CDR3α only) (parent)
chain: AGPMKTSYDKVI

Variants of: B1
Test: T-Switch: Jurkat TCRβ−/− cells expressing a CDR3 saturation-mutagenesis library, stained with two peptide-HLA-A*02:01 tetramers (original and novel peptide) plus anti-CD3, FACS-sorted into four gates, gDNA sequenced
Conditions: tetramers 1 µg/mL, 30 min on ice, SP, DP and SW gates expanded about 10 days between rounds ('two to three rounds of selection' in the Methods), unresolved parent, parent is a CDR3 fragment, scale: fold enrichment, numbering: sequential-on-construct, sequence starts at 1
[1] = with both tetramers (double-negative gate, binds neither): HLA-A*02:01 with … and with …, gate DN: OPPOSITE: higher = more of the variant in the gate that binds neither peptide = LESS binding (or no expression; inferred). Fold enrichment of the CDR3 variant in one FACS gate of a two-tetram
[2] = with both tetramers (double-positive gate): HLA-A*02:01 with … and with …, gate DP: higher = more of the variant in the gate that binds both peptides. Fold enrichment of the CDR3 variant in one FACS gate of a two-tetramer stain. SP/DP/SW gates were expanded and re-sorted bef

## […] (CDR3 as printed); P3R derived by comparing it with the table's wild-type CDR3 AGPMKTSYDKVI
[1]
  enrichment: 1.32
[2]
  enrichment: 0

## […] (CDR3 as printed); I12N derived by comparing it with the table's wild-type CDR3 AGPMKTSYDKVI
[1]
  enrichment: 1.04
[2]
  enrichment: 0

## […] (CDR3 as printed); Y8K derived by comparing it with the table's wild-type CDR3 AGPMKTSYDKVI
[1]
  enrichment: 0.928
[2]
  enrichment: 0

## […] (CDR3 as printed); S7D derived by comparing it with the table's wild-type CDR3 AGPMKTSYDKVI
[1]
  enrichment: 0.804
[2]
  enrichment: 0

## […] (CDR3 as printed); D9G derived by comparing it with the table's wild-type CDR3 AGPMKTSYDKVI
[1]
  enrichment: 1.23
[2]
  enrichment: 0

## […] (CDR3 as printed); K5D derived by comparing it with the table's wild-type CDR3 AGPMKTSYDKVI
[1]
  enrichment: 0.812
[2]
  enrichment: 0

## […] (CDR3 as printed); D9T derived by comparing it with the table's wild-type CDR3 AGPMKTSYDKVI
[1]
  enrichment: 0.889
[2]
  enrichment: 0

## […] (CDR3 as printed); A1W derived by comparing it with the table's wild-type CDR3 AGPMKTSYDKVI
[1]
  enrichment: 0.77
[2]
  enrichment: 0

## […] (CDR3 as printed); S7C derived by comparing it with the table's wild-type CDR3 AGPMKTSYDKVI
[1]
  enrichment: 0.877
[2]
  enrichment: 0

## […] (CDR3 as printed); K5L derived by comparing it with the table's wild-type CDR3 AGPMKTSYDKVI
[1]
  enrichment: 0.992
[2]
  enrichment: 0

## […] (CDR3 as printed); D9M derived by comparing it with the table's wild-type CDR3 AGPMKTSYDKVI
[1]
  enrichment: 0.931
[2]
  enrichment: 0

## […] (CDR3 as printed); K10I derived by comparing it with the table's wild-type CDR3 AGPMKTSYDKVI
[1]
  enrichment: 1.1
[2]
  enrichment: 0

## […] (CDR3 as printed); V11A derived by comparing it with the table's wild-type CDR3 AGPMKTSYDKVI
[1]
  enrichment: 1.13
[2]
  enrichment: 0

## […] (CDR3 as printed); D9I derived by comparing it with the table's wild-type CDR3 AGPMKTSYDKVI
[1]
  enrichment: 1.01
[2]
  enrichment: 0

## […] (CDR3 as printed); M4S derived by comparing it with the table's wild-type CDR3 AGPMKTSYDKVI
[1]
  enrichment: 0.52
[2]
  enrichment: 0

## […] (CDR3 as printed); G2A derived by comparing it with the table's wild-type CDR3 AGPMKTSYDKVI
[1]
  enrichment: 0.977
[2]
  enrichment: 0

## […] (CDR3 as printed); S7G derived by comparing it with the table's wild-type CDR3 AGPMKTSYDKVI
[1]
  enrichment: 0.911
[2]
  enrichment: 0

## […] (CDR3 as printed); A1Y derived by comparing it with the table's wild-type CDR3 AGPMKTSYDKVI
[1]
  enrichment: 0.935
[2]
  enrichment: 0

## […] (CDR3 as printed); K10N derived by comparing it with the table's wild-type CDR3 AGPMKTSYDKVI
[1]
  enrichment: 1.16
[2]
  enrichment: 0

## […] (CDR3 as printed); P3Q derived by comparing it with the table's wild-type CDR3 AGPMKTSYDKVI
[1]
  enrichment: 1.16
[2]
  enrichment: 0

## […] (CDR3 as printed); K10C derived by comparing it with the table's wild-type CDR3 AGPMKTSYDKVI
[1]
  enrichment: 1.06
[2]
  enrichment: 0

## […] (CDR3 as printed); D9H derived by comparing it with the table's wild-type CDR3 AGPMKTSYDKVI
[1]
  enrichment: 1.29
[2]
  enrichment: 0

## […] (CDR3 as printed); T6Y derived by comparing it with the table's wild-type CDR3 AGPMKTSYDKVI
[1]
  enrichment: 1.48
[2]
  enrichment: 0

## […] (CDR3 as printed); A1P derived by comparing it with the table's wild-type CDR3 AGPMKTSYDKVI
[1]
  enrichment: 0.883
[2]
  enrichment: 0

## […] (CDR3 as printed); K5R derived by comparing it with the table's wild-type CDR3 AGPMKTSYDKVI
[1]
  enrichment: 1.15
[2]
  enrichment: 0

## […] (CDR3 as printed); T6V derived by comparing it with the table's wild-type CDR3 AGPMKTSYDKVI
[1]
  enrichment: 0.56
[2]
  enrichment: 0

## […] (CDR3 as printed); A1K derived by comparing it with the table's wild-type CDR3 AGPMKTSYDKVI
[1]
  enrichment: 1
[2]
  enrichment: 0

## […] (CDR3 as printed); K10F derived by comparing it with the table's wild-type CDR3 AGPMKTSYDKVI
[1]
  enrichment: 1.13
[2]
  enrichment: 0
